Measurements as given in patent US20240124586A1 (WUXI BIOLOGICS IRELAND, published 2024).
Where two headings read alike, the source gives them in different places.

Tests used:
[1] = biological target: T1, human PD-1 on engineered CHO-S cells (W305-CHO-S.hPro1.C6) (human, UniProt Q15116 25-288); assay: FACS competition: antibody titrated against human PD-L1 binding to PD-1; falling curve, half-maximal value labelled EC50 on the sheet
T1 construct: whole, on cells; also called human PD-1 engineered cells; PD-1+ cells
T1 sequence (Q15116 25-288, stated change not applied): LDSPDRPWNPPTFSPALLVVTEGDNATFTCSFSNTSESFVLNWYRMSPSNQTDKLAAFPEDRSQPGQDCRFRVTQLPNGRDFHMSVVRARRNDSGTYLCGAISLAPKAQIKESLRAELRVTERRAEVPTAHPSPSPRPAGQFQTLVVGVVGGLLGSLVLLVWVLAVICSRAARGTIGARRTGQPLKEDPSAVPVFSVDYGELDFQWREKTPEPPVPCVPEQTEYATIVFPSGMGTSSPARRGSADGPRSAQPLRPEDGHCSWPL
Description: (§1) In order to test whether the bispecific antibodies could block hPD-L1 binding to hPD-1 protein, a competitive FACS was conducted. […] Plates were incubated at 4° C. for 1 hour. After wash, the binding of W315-hPro1.ECD.mFc to cell expressive human PD-1 was detected by FITC-labeled goat anti-mouse antibody (abcam 98716 1:125). The competition binding of antibodies to the cells was tested by flow cytometry and the mean fluorescence intensity (MFI) was analyzed by FlowJo.

[2] = biological target: T1, human PD-1 on engineered CHO-S cells …; assay: FACS on human PD-1 engineered cells
Description: (§2) Engineered human PD-1 expressing cells W305-CHO-S.hPro1.C6 were seeded at 1×10⁵ cells/well in U-bottom 96-well plates (COSTAR 3799). Antibodies with 3.16-fold titration in 1% BSA DPBS from 200 nM to 0.002 nM were added to the cells. The plates were incubated at 4° C. for 1 hour. After wash, […] 1:125 diluted PE-labeled goat anti-human antibody (Jackson 109-115-098) was added to each well and the plates were incubated at 4° C. for 1 hour. The binding of the antibodies onto the cells was tested by flow cytometry and the mean fluorescence intensity (MFI) was analyzed by FlowJo.

[3] = biological target: T2, human PD-1 ECD mouse Fc fusion (W305-hPro1.ECD.mFc) (human, UniProt Q15116 25-170); assay: dual-binding ELISA: human PD-1 ECD coated, antibody titrated, bound antibody detected with biotinylated human CTLA-4 ECD and streptavidin-HRP
T2 construct: extracellular domain; In-house protein; also called hPD-1-ECD; human PD-1 coated on the plate
T2 sequence (Q15116 25-170): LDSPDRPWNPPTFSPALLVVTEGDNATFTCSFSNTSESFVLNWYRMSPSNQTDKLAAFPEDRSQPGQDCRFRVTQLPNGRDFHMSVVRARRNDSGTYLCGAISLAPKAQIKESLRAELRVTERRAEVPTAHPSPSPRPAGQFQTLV
Description: In order to test whether the bispecific antibodies could bind to both hPD-1 and hCTLA-4, an ELISA assay was developed as below. A 96-well ELISA plate (Nunc MaxiSorp, ThermoFisher) was coated overnight at 4° C. with 0.5 μg/ml antigen-1 (hPD-1-ECD, W305-hPro1.ECD.mFc) in carbonate-bicarbonate buffer. After a 1 hour blocking step with 2% (w/v) bovine serum albumin (Pierce) dissolved in PBS, serial dilutions of the different PD-1×CTLA-4 bispecific antibodies in PBS containing 2% BSA PBS were incubated on the plates for 1 hour at room temperature. Following the incubation, plates were washed three times with 300 μL per well of PBS containing 0.5% (v/v) Tween 20. […] After washing the plates three times, Streptavidin-HRP (Lifetechnologies, #SNN1004) (1:20000 diluted) was added and incubated on the plates for 1 hour at room temperature. After washing six times with […] per well of PBS containing 0.5% (v/v) Tween 20, 100 μL tetramethylbenzidine (TMB) substrate was added for the detection per well. The reaction was stopped after approximately 5 minutes through the addition of […] per well of 2 M HCl. The absorbance of the wells was measured at 450 nm with a multiwall plate reader (SpectraMax® M5e).

[4] = biological target: T1, human PD-1 on engineered CHO-S cells …; assay: FACS competition: antibody titrated against human PD-L1 binding to PD-1; falling curve, half-maximal value labelled EC50 on the sheet; remark: listed apart in the source
Description: as §1

[5] = biological target: T1, human PD-1 on engineered CHO-S cells …; assay: FACS on human PD-1 engineered cells; remark: listed apart in the source
Description: as §2

B1: U6T1.G19R.IgG4, bispecific anti-PD-1 x CTLA-4 (bispecific antibody)
heavy: EVQLLESGGGLVQPGGSLRLSCAASGFTFSSHAMSWVRQAPGKGLEWVSTITGGGGSIYYADSVKGRFTISRDNSKNTLYLQMNSLRAEDTAVYYCAKNRAGEGYFDYWGQGTLVTVLEDLKNVFPPEVAVFEPSEAEISHTQKATLVCLATGFYPDHVELSWWVNGKEVHSGVCTDPQPLKEQPALQDSRYALSSRLRVSATFWQNPRNHFRCQVQFYGLSENDEWTQDRAKPVTQIVSAEAWGRYGPPCPPCPAPEFLGGPSVFLFPPKPKDTLMISRTPEVTCVVVDVSQEDPEVQFNWYVDGVEVHNAKTKPREEQFNSTYRVVSVLTVLHQDWLNGKEYKCKVSNKGLPSSIEKTISKAKGQPREPQVYTLPPSQEEMTKNQVSLTCLVKGFYPSDIAVEWESNGQPENNYKTTPPVLDSDGSFFLYSRLTVDKSRWQEGNVFSCSVMHEALHNHYTQKSLSLSLGGGGGSGGGGSGGGGSGGGGSQVQLVESGGGVVQPGRSLRLSCAASGFTFSSYTMHWVRQAPGKGLEWVTFISYDGNNKYYADSVKGRFTISRDNSKNTLYLQMNSLRAEDTAIYYCARTGWLGPFDYWGQGTLVTVSSASTKGPSVFPLAPCSRSTSESTAALGCLVKDYFPEPVTVSWNSGALTSGVHTFPAVLQSSGLYSLSSVVTVPSSSLGTKTYTCNVDHKPSNTKVDKRV
light 1: SYELTQPLSVSVALGQTARITCGGDNIGNKDVHWYQQKPGQAPVLVIYRDSNRPSGIPEGFSGSNSGNTATLTISRAQAGDEADYYCQVWDSIWVFGGGTKLTVLPDIQNPDPAVYQLRDSKSSDKSVCLFTDFDSQTQVSQSKDSDVYITDKCVLDMRSMDFKSNSAVAWSQKSDFACANAFQNSIIPEDTFFPSPESS
light 2: not shown
notes: Symmetric tetravalent format G19R; also called U6T1 in G19R format
IC50 [1]: 1.87 nM
EC50 [2]: 1.74 nM

B2: U6T1.G25.IgG4, bispecific anti-PD-1 x CTLA-4 (bispecific antibody)
heavy: not shown
light 1: SYELTQPLSVSVALGQTARITCGGDNIGNKDVHWYQQKPGQAPVLVIYRDSNRPSGIPEGFSGSNSGNTATLTISRAQAGDEADYYCQVWDSIWVFGGGTKLTVLPDIQNPDPAVYQLRDSKSSDKSVCLFTDFDSQTQVSQSKDSDVYITDKCVLDMRSMDFKSNSAVAWSQKSDFACANAFQNSIIPEDTFFPSPESS
light 2: not shown
notes: Symmetric tetravalent format G25; also called U6T1 in G25 format
IC50 [1]: 1.96 nM
EC50 [2]: 1.65 nM

B3: U6T1.G25R.IgG4, bispecific anti-PD-1 x CTLA-4 (as listed in Example 15) (bispecific antibody)
heavy: EVQLLESGGGLVQPGGSLRLSCAASGFTFSSHAMSWVRQAPGKGLEWVSTITGGGGSIYYADSVKGRFTISRDNSKNTLYLQMNSLRAEDTAVYYCAKNRAGEGYFDYWGQGTLVTVSSASTKGPSVFPLAPCSRSTSESTAALGCLVKDYFPEPVTVSWNSGALTSGVHTFPAVLQSSGLYSLSSVVTVPSSSLGTKTYTCNVDHKPSNTKVDKRVGGGGSGGGGSQVQLVESGGGVVQPGRSLRLSCAASGFTFSSYTMHWVRQAPGKGLEWVTFISYDGNNKYYADSVKGRFTISRDNSKNTLYLQMNSLRAEDTAIYYCARTGWLGPFDYWGQGTLVTVLEDLKNVFPPEVAVFEPSEAEISHTQKATLVCLATGFYPDHVELSWWVNGKEVHSGVCTDPQPLKEQPALQDSRYALSSRLRVSATFWQNPRNHFRCQVQFYGLSENDEWTQDRAKPVTQIVSAEAWGRYGPPCPPCPAPEFLGGPSVFLFPPKPKDTLMISRTPEVTCVVVDVSQEDPEVQFNWYVDGVEVHNAKTKPREEQFNSTYRVVSVLTVLHQDWLNGKEYKCKVSNKGLPSSIEKTISKAKGQPREPQVYTLPPSQEEMTKNQVSLTCLVKGFYPSDIAVEWESNGQPENNYKTTPPVLDSDGSFFLYSRLTVDKSRWQEGNVFSCSVMHEALHNHYTQKSLSLSLGK
light 1: SYELTQPLSVSVALGQTARITCGGDNIGNKDVHWYQQKPGQAPVLVIYRDSNRPSGIPEGFSGSNSGNTATLTISRAQAGDEADYYCQVWDSIWVFGGGTKLTVLGQPKAAPSVTLFPPSSEELQANKATLVCLISDFYPGAVTVAWKADSSPVKAGVETTTPSKQSNNKYAASSYLSLTPEQWKSHKSYSCQVTHEGSTVEKTVAPTECS
light 2: not shown
notes: kept apart; also called U6T1 in G25R format
EC50 [3]: 0.107 nM
IC50 [4]: 1.67 nM
EC50 [5]: 1.42 nM
IC50 [1]: 1.92 nM
EC50 [2]: 1.81 nM
